The results in this text go back to patent publication US20030157108A1.

Assay [1] deals with human FcγRIIIA(F158) (human) (UniProt P08637). The assay can be described thus: ELISA, Hu4D5 dimers at 1.11 µg/ml; standard = CHO-S.
Assay [2] concerns the target human FcγRIIIA(V158) (human) (UniProt P08637). Kind of assay: ELISA, E27 dimers at 0.12 µg/ml (by text and FIG. 10; footnote letters shifted); standard = HEK293.
Assay [3] deals with human FcγRIIIA(F158) (human) (UniProt P08637). The assay can be described thus: ELISA, E27 dimers at 0.12 µg/ml (by text and FIG. 11; footnote letters shifted); standard = HEK293.
For assay [4] the target is unchanged. The assay can be described thus: ELISA, E27 hexamers (E27:IgE complexes) at 0.12 µg/ml (by text and FIG. 12; footnote letters shifted); standard = HEK293.
Assay [5] has as its target human FcγRIIIA(V158) (human) (UniProt P08637). The assay can be described thus: ELISA, E27 hexamers (E27:IgE complexes) at 0.12 µg/ml (by text and FIG. 13; footnote letters shifted); standard = HEK293.
The target is the same in assay [6]. Kind of assay: ELISA, Hu4D5 dimers at 1.11 µg/ml; standard = CHO-S.
The target is the same in assay [7]. The assay can be described thus: ELISA, Hu4D5 dimers; Table 2 prints 23.1 for the average.
Assay [8] has as its target human FcγRIIIA(F158) (human) (UniProt P08637). The assay can be described thus: ELISA, Hu4D5 dimers at 1.11 µg/ml; standard = CHO-S; average of lots.
Assay [9] deals with human FcγRIIIA(V158) (human) (UniProt P08637). The assay is described as above.
Assay [10] has as its target human FcγRIIIA(Phe158) full-length α-chain co-expressed with γ-chain on CHO cells (human) (UniProt P08637). The assay can be described thus: cell-based assay, Hu4D5 monomers on CHO cells transfected with FcγRIIIA α-chain and γ-chain (by text and FIG. 28; footnote letters shifted); standard = CHO-S.
Assay [11] has the same target. The assay can be described thus: cell-based assay, Hu4D5 monomers on CHO cells transfected with FcγRIIIA α-chain and γ-chain (by text and FIG. 28; footnote letters shifted); standard = CHO-S; average of lots.

Several values for one entry are separate records, joined by “and”; a condition that tells them apart may be missing. Equal entries are not always repeated.

human FcγRIIIA(Phe158) full-length α-chain co-expressed with γ-chain on CHO cells (human), sequence (P08637 17-254, chain 1 of 2): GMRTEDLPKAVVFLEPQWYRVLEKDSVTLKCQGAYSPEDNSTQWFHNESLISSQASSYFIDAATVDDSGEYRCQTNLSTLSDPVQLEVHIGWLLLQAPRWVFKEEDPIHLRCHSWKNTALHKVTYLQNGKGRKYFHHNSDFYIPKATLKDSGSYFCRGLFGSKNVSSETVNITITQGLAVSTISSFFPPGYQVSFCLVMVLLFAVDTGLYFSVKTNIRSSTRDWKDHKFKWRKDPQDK
human FcγRIIIA(Phe158) full-length α-chain co-expressed with γ-chain on CHO cells (human), sequence (P30273 19-86, chain 2 of 2, further chain): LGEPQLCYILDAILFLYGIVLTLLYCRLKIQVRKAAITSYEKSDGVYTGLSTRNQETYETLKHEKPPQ
human FcγRIIIA(F158) (human), sequence (P08637 17-208 limits assumed): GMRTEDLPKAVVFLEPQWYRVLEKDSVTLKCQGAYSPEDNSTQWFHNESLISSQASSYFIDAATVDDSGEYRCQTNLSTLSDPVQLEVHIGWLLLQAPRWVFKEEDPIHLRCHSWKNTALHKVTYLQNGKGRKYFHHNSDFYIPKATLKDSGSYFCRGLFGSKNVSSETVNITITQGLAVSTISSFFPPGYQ
human FcγRIIIA(V158) (human), sequence (P08637 17-208 F176V limits assumed): as the sequence (P08637 17-208 limits assumed) above, with F160V counted along it

As to “Hu4D5 with S298A/E333A/K334A substitutions in the Fc region, expressed in HEK293 cells (antibody)”, in assay [1], the ratio A(variant)/A(standard) at A490nm was found to be 20.8.

With “anti-IgE antibody E27 expressed in Lec13 cells (fucose-deficient)”, the ratio A(variant)/A(standard) at A490nm in assay [2] amounted to 6.44; in assay [3] it was 7.63; in assay [4], 1.92.

“E27 with S298A/E333A/K334A substitutions in the Fc region, expressed in HEK293 cells (antibody)”: the ratio A(variant)/A(standard) at A490nm in assay [4] is 1.87; in [5], 1.15.

In the case of “anti-IgE antibody E27 expressed in CHO-DP12 cells on plates (CHO-P)”, the results for the ratio A(variant)/A(standard) at A490nm in assay [2], in assay [3] and in assay [4] were 0.32, 0.35 and 0.65, respectively.

For the substance “Hu4D5 with S298A/E333A/K334A substitutions in the Fc region, expressed in Lec13 cells (fucose-deficient) (antibody)”, the ratio A(variant)/A(standard) at A490nm in assay [1] was 32.8 and 32.9 and 34.8; in [6], 25.4 and 23.8 and 22.5; in assay [8], 33.5; in assay [9], 23.1. In addition, the fold improvement in binding in assay [7] stood at 21 fold. In addition, the ratio variant/standard in assay [10] is 26.8 and 25.9; in assay [11] it was 26.4.
